Several values for one entry are separate records, joined by “and”; a condition that tells them apart may be missing. Identical values can stand only once.
Experiments:
[1] = target: Human DNAJB6b (human) (UniProt O75190); assay: mass photometry; dissociation kinetics: 34 μM non-labeled JB6 diluted to 50 nM at time zero, 22 and 37 °C; total micelle mass (N > 2) in 60 s of data collection against time
[2] = target: Human DNAJB6b (human) (UniProt O75190); assay: mass photometry; JB6 equilibrated at different concentrations (1 to 100 μM), 20 mM NaP, 0.2 mM EDTA, pH 8.0, room temperature; samples above 200 nM diluted to 200 nM less than a minute before a 60 s measurement; also 5 μM JB6 with 0-1.25 M NaCl

Chain of Human DNAJB6b, O75190-2 1-241 (natural protein; other documents disagree on this pair) (O75190 other isoform, or with tags, fused parts or gaps): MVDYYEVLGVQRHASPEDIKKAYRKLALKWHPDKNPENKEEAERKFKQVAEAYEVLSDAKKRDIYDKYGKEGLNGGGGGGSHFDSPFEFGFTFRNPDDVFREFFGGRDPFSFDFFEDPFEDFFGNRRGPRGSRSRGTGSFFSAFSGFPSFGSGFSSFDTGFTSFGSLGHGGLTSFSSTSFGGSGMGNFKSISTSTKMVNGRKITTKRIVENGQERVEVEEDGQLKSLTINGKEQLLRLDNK

Question: How did the time scale of micelle dissociation at 37 °C [1] turn out when “Human DNAJB6b, O75190-2 1-241 (natural protein; other documents disagree on this pair)” was run?
Answer: 20 min

Question: And the stoichiometry N [2]?
Answer: 20 and 40
